# Tests used:
# biotinylated TNF alpha = target: T1, biotinylated TNF alpha (human, UniProt P01375 77-233, biotinylated using EZ link Sulfo-NHS-biotin (sites not given)); assay: competition ELISA, antibody against plate-bound TNF alpha RII-Fc for biotin-TNF alpha
# T1 construct: also called biotin-TNF alpha
# [1] = target: T2, TNF alpha (PeproTech EC Ltd, London, UK) (human, UniProt P01375 77-233); assay: plate ELISA, TNF alpha coated at 2.5 µg/ml, anti-human IgG-HRP detection
# T2 construct: also called tumor necrosis factor alpha
# T2 sequence (P01375 77-233 limits assumed): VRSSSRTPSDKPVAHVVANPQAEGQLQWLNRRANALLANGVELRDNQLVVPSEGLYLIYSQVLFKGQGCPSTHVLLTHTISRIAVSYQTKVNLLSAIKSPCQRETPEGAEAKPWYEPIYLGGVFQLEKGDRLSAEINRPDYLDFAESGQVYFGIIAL
# T1 sequence (P01375 77-233 limits assumed): as above
binder,measurement,setting,value
"modified anti-TNF alpha antibody Vh5/Vk12 (antibody, human IgG1, V domains shown, Expressed in NS/0 cells as whole antibody with a human IgG1 constant region (vector pSVgpt) and a human kappa constant region (vector pSVhyg); also called modified antibody of the invention; preferred antibody of the present invention) VH: EVKLEESGGGLVQPGGSLRLSCAASGFTFSNHWMNWVRQSPEKGLEWVAETRSKSTNSATHYAESVKGRFTISRDDSKNSLYLQMNSLKTEDTGVYYCSRNYYGSTYDYWGQGTTVTVSS VL: DIQLTQSPDTSSASPGERASFSCRASQFVGSSIHWYQHTTNGSPRLLIKYASESMSGVPSRFSGSGSGTDFTLTINSLEAEDAATYYCQQSHSWPFTFGSGTNLEVKR",binding result,biotinylated TNF alpha,binds
same,binding result,[1],binds

# Source: patent publication US20040260069A1 (Merck KGaA, published 2004)
